Measured values published in patent US20210130431A1 (published 2021).

Tests used:
[1] = biological target: T1, TCL1 peptide on HLA-A*02:01 (human); test: multimer staining
T1 peptide: SLLPIMWQLY

[2] = biological target: T2, TCL1 70-79, alanine replacement at position 4 peptide on HLA-A*02:01 (human); test: cytokine release
T2 peptide: SLLAIMWQLY

[3] = biological target: T3, TCL1 70-79, alanine replacement at position 7 peptide on HLA-A*02:01 (human); test: cytokine release
T3 peptide: SLLPIMAQLY

[4] = biological target: T4, TCL1 70-79, alanine replacement at position 10 peptide on HLA-A*02:01 (human); test: cytokine release
T4 peptide: SLLPIMWQLA

[5] = biological target: T5, TCL1 70-79, glycine replacement at position 3 peptide on HLA-A*02:01 (human); test: cytokine release
T5 peptide: SLGPIMWQLY

[6] = biological target: T6, TCL1 70-79, alanine replacement at position 3 peptide on HLA-A*02:01 (human); test: cytokine release
T6 peptide: SLAPIMWQLY

[7] = biological target: T7, TCL1 70-79, glycine replacement at position 4 peptide on HLA-A*02:01 (human); test: cytokine release
T7 peptide: SLLGIMWQLY

[8] = biological target: T8, TCL1 70-79, glycine replacement at position 5 peptide on HLA-A*02:01 (human); test: cytokine release
T8 peptide: SLLPGMWQLY

[9] = biological target: T9, TCL1 70-79, alanine replacement at position 8 peptide on HLA-A*02:01 (human); test: cytokine release
T9 peptide: SLLPIMWALY

[10] = biological target: T10, TCL1 70-79, glycine replacement at position 2 peptide on HLA-A*02:01 (human); test: cytokine release
T10 peptide: SGLPIMWQLY

[11] = biological target: T11, TCL1 70-79, alanine replacement at position 2 peptide on HLA-A*02:01 (human); test: cytokine release
T11 peptide: SALPIMWQLY

[12] = biological target: T12, TCL1 70-79, glycine replacement at position 10 peptide on HLA-A*02:01 (human); test: cytokine release
T12 peptide: SLLPIMWQLG

[13] = biological target: T13, TCL1 70-79, glycine replacement at position 7 peptide on HLA-A*02:01 (human); test: cytokine release
T13 peptide: SLLPIMGQLY

[14] = biological target: T14, TCL1 70-79, alanine replacement at position 9 peptide on HLA-A*02:01 (human); test: cytokine release
T14 peptide: SLLPIMWQAY

[15] = biological target: T15, TCL1 70-79, glycine replacement at position 9 peptide on HLA-A*02:01 (human); test: cytokine release
T15 peptide: SLLPIMWQGY

[16] = biological target: T16, TCL1 70-79, glycine replacement at position 1 peptide on HLA-A*02:01 (human); test: cytokine release
T16 peptide: GLLPIMWQLY

[17] = biological target: T17, TCL1 70-79, alanine replacement at position 1 peptide on HLA-A*02:01 (human); test: cytokine release
T17 peptide: ALLPIMWQLY

[18] = biological target: T18, TCL1 70-79, glycine replacement at position 8 peptide on HLA-A*02:01 (human); test: cytokine release
T18 peptide: SLLPIMWGLY

[19] = biological target: T19, TCL1 70-79, alanine replacement at position 5 peptide on HLA-A*02:01 (human); test: cytokine release
T19 peptide: SLLPAMWQLY

[20] = biological target: T20, TCL1 70-79, alanine replacement at position 6 peptide on HLA-A*02:01 (human); test: cytokine release
T20 peptide: SLLPIAWQLY

[21] = biological target: T21, TCL1 70-79, glycine replacement at position 6 peptide on HLA-A*02:01 (human); test: cytokine release
T21 peptide: SLLPIGWQLY

binding result [1]: recognises
binding result [2]: no recognition
binding result [3]: no recognition
binding result [4]: recognises
binding result [5]: no recognition
binding result [6]: no recognition
binding result [7]: no recognition
binding result [8]: no recognition
binding result [9]: no recognition
binding result [10]: no recognition
binding result [11]: no recognition
binding result [12]: recognises
binding result [13]: no recognition
binding result [14]: no recognition
binding result [15]: no recognition
binding result [16]: recognises
binding result [17]: recognises
binding result [18]: no recognition
binding result [19]: no recognition
binding result [20]: no recognition
binding result [21]: no recognition
B1: TCL1-TCR (TCR, V domains shown)
Valpha: GQSLEQPSEVTAVEGAIVQINCTYQTSGFYGLSWYQQHDGGAPTFLSYNGLDGLEETGRFSSFLSRSDSYGYLLLQELQMKDSASYFCLLGSGAGSYQLTFGKGTKLSVIP
Vbeta: DAGVTQSPTHLIKTRGQHVTLRCSPISGHKSVSWYQQVLGQGPQFIFQYYEKEERGRGNFPDRFSARQFPNYSSELNVNALLLGDSALYLCASSFTDGGTYEQYFGPGTRLTVT
